The text below walks through data of publication PMC10170517.

Common to all, as to assay: potentiometry
What all share (conditions): 298 K; 0.1 M NaClO4; metal-free peptide, random coil

The target of data set [1] is Glu7 (position 7, …).
The target of data set [2] is Glu7 (position 7, …). This is another data set of the same source.
Data set [3] has as its target Glu7 (position 7, …). This is another data set of the same source.
Data set [4] deals with Glu7 (position 7, …). This is another data set of the same source.

The term pKa denotes the negative logarithm of the acid dissociation constant. A low value points to a group that gives up its proton readily. In data set [1], DKPAKAEDHDQHHGHAH [GroEL1 C-terminal tail peptide L4 (H11Q mutant of L2) (Mycobacterium tuberculosis; H11Q)] returned a pKa of 4.71. Regarding DKPAKAEDQDHHHGHAH [GroEL1 C-terminal tail peptide L3 (H9Q mutant of L2) (Mycobacterium tuberculosis; H9Q)], the pKa in data set [2] was 4.74.

The protein DKPAKAEDHDHQHGHAH [GroEL1 C-terminal tail peptide L5 (H12Q mutant of L2) (Mycobacterium tuberculosis; H12Q)] had a pKa in data set [3] of 4.36. Consider DKPAKAEDHDHHHGQAH [GroEL1 C-terminal tail peptide L7 (H15Q mutant of L2) (Mycobacterium tuberculosis; H15Q)], for which the pKa in data set [4] is 4.45. Still for that read-out and setting: under DKPAKAEDHDHHQGHAH [GroEL1 C-terminal tail peptide L6 (H13Q mutant of L2) (Mycobacterium tuberculosis; H13Q)] stands 4.96; under DKPAKAEDHDHHHGHAQ [GroEL1 C-terminal tail peptide L8 (H17Q mutant of L2) (Mycobacterium tuberculosis; H17Q)], 4.44.
